Columns and labels:
Factor Xa = test: cell-based or functional assay
[1] = target: the molecule itself; test: SEC; Superdex 75 10/300, 20 mM Tris-HCl, 0.15 M NaCl, pH 8, 0.5 mL/min; column calibrated with salivary proteins of known mass
Lys-plasminogen = target: T1, Lys-plasminogen (UniProt P00747 97-810); test: SPR; Ixonnexin amine-coupled to a carboxymethylated dextran (CM5) chip, 726.2 RU; analytes injected 120 s at 30 µL/min, 25 °C, dissociation 600 s; global fit with the two-state (conformational change) model, Langmuir 1:1 for plasmin; conditions: both partners purified
T1 construct: source: bought: Enzyme Research Laboratories or Innovative Research
T1 sequence (P00747 97-810): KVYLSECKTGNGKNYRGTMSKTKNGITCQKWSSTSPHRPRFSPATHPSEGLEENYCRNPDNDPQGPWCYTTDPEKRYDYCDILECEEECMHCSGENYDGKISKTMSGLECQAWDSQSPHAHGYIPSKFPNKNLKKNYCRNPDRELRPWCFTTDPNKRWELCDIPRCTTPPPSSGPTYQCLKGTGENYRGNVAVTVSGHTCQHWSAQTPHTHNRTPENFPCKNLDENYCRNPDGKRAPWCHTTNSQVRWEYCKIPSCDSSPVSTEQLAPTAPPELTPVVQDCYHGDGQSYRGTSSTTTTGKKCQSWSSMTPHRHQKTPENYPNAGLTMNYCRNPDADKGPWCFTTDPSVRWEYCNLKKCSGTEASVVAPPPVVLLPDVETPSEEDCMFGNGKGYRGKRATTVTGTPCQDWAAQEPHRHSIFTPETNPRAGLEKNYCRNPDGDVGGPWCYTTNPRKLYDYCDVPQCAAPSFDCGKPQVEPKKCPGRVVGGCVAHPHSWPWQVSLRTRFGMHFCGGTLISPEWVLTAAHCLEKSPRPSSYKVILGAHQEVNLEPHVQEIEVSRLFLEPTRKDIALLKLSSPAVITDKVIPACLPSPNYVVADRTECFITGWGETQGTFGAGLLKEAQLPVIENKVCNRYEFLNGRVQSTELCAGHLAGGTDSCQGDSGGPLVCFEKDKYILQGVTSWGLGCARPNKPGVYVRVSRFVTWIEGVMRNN

Factor Xa, sequence (P00742 32-488): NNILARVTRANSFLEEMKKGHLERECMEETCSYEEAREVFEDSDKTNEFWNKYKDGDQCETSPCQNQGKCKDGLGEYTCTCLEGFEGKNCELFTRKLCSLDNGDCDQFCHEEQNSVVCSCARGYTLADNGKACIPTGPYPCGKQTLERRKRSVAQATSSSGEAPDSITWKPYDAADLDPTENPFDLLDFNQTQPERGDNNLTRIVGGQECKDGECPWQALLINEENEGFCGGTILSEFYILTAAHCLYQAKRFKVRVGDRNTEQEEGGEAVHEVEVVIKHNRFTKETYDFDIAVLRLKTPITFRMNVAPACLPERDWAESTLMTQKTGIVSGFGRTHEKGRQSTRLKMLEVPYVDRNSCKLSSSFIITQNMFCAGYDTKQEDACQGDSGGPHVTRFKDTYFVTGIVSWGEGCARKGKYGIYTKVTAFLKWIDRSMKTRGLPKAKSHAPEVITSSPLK

B1: Ixonnexin (natural protein)
chain: HNCQNGTRPASEENREGCDYYCWNAETKSWDQFFFGNGERCFYNTGEKGTCLNGECHLTTSSGGPDDTGDNTPPPTEKPKQKKKKPKKTKKPKRKSKKDQKENF
notes: Ixonnexin, 'Basic-tail' family salivary protein of Ixodes scapularis (gi 67083505); the precursor has a signal peptide of 21 residues (cut between Ala21 and His22); the mature protein of 104 residues was synthesized; numbers count on: the mature protein; 3 disulfide bonds after folding; Gel filtration is consistent with a non-covalent dimer; mass spectrometry gave a single monomeric mass; also …
- amidolytic activity of FXa (0.33 nM) on a fluorogenic substrate, enhanced by Ixonnexin: IC50 (Factor Xa): 9.73 nM
- stoichiometry N [1]: 2
- Kd (Lys-plasminogen): 14.4 nM
